The supplement of paper PMC10567573

B1: STEAP1 (parent)
chain: LWKMKPRRNLEEDDYLHKDTGETS

Variants of: B1
Assay: protein stability index of a GFP-peptide fusion (GPS, HEK-293T) (PSI 1-6); higher = more stable
Settings: c terminus: a fixed tail appended
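Further: lentivirally expressed fusions sorted by FACS into six bins by GFP to DsRed ratio, PSI derived from sequencing read proportions per bin multiplied by bin number.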

| Variant | protein stability index |
| --- | --- |
| LWKMKPRRNLEEDIYLHKDTGETS | 3.84 |
| LWKMKPRRNLEEDNYLHKDTGETS | 4.4 |
| LWKMKPRRNLEEDLYLHKDTGETS | 3.8 |
| LWKMKPRRNLEEDVYLHKDTGETS | 4.07 |
| LWKMKPRRNLEEDTYLHKDTGETS | 4.46 |
| LWKMKPRRNLEEDEYLHKDTGETS | 4.63 |
| LWKMKPRRNLEEDCYLHKDTGETS | 4.23 |
| LWKMKPRRNLEEDPYLHKDTGETS | 4.34 |
| LWKMKPRRNLEEDHYLHKDTGETS | 4.18 |
| LWKMKPRRNLEEDQYLHKDTGETS | 4.32 |
| LWKMKPRRNLEEDKYLHKDTGETS | 4.53 |
| LWKMKPRRNLEEDMYLHKDTGETS | 4 |
| LWKMKPRRNLEEDGYLHKDTGETS | 4.31 |
| LWKMKPRRNLEEDYYLHKDTGETS | 3.87 |
| LWKMKPRRNLEEDSYLHKDTGETS | 4.18 |
| LWKMKPRRNLEEDRYLHKDTGETS | 4.7 |
| LWKMKPRRNLEEDFYLHKDTGETS | 3.74 |
| LWKMKPRRNLEEDWYLHKDTGETS | 3.11 |
| LWKMKPRRNLEEDAYLHKDTGETS | 4.21 |
| LWKMKPRRNLEEDDYLHKDKGETS | 3.6 |
| LWKMKPRRNLEEDDYLHKDLGETS | 4.13 |
| LWKMKPRRNLEEDDYLHKDMGETS | 3.84 |
| LWKMKPRRNLEEDDYLHKDEGETS | 4.8 |
| LWKMKPRRNLEEDDYLHKDCGETS | 4.31 |

| Variant | protein stability index |
| --- | --- |
| LWKMKPRRNLEEDDYLHKDGGETS | 4.58 |
| LWKMKPRRNLEEDDYLHKDFGETS | 3.51 |
| LWKMKPRRNLEEDDYLHKDVGETS | 4.05 |
| LWKMKPRRNLEEDDYLHKDIGETS | 4.12 |
| LWKMKPRRNLEEDDYLHKDRGETS | 4.44 |
| LWKMKPRRNLEEDDYLHKDPGETS | 4.51 |
| LWKMKPRRNLEEDDYLHKDHGETS | 4.26 |
| LWKMKPRRNLEEDDYLHKDQGETS | 4.71 |
| LWKMKPRRNLEEDDYLHKDWGETS | 3.85 |
| LWKMKPRRNLEEDDYLHKDAGETS | 4.39 |
| LWKMKPRRNLEEDDYLHKDDGETS | 5.09 |
| LWKMKPRRNLEEDDYLHKDSGETS | 4.19 |
| LWKMKPRRNLEEDDYLHKDYGETS | 3.74 |
| LWKMKPRRNLEEDDYLHKDNGETS | 4.46 |
| LWKMKPRRNLEEWDYLHKDTGETS | 3.21 |
| LWKMKPRRNLEEADYLHKDTGETS | 3.94 |
| LWKMKPRRNLEERDYLHKDTGETS | 4.15 |
| LWKMKPRRNLEEVDYLHKDTGETS | 3.87 |
| LWKMKPRRNLEEFDYLHKDTGETS | 3.83 |
| LWKMKPRRNLEESDYLHKDTGETS | 3.85 |
| LWKMKPRRNLEECDYLHKDTGETS | 3.65 |
| LWKMKPRRNLEEIDYLHKDTGETS | 3.84 |
| LWKMKPRRNLEEYDYLHKDTGETS | 4.17 |
| LWKMKPRRNLEEKDYLHKDTGETS | 4.43 |

| Variant | protein stability index |
| --- | --- |
| LWKMKPRRNLEEQDYLHKDTGETS | 4.63 |
| LWKMKPRRNLEEPDYLHKDTGETS | 4.45 |
| LWKMKPRRNLEEMDYLHKDTGETS | 3.8 |
| LWKMKPRRNLEETDYLHKDTGETS | 4.19 |
| LWKMKPRRNLEENDYLHKDTGETS | 4.35 |
| LWKMKPRRNLEEHDYLHKDTGETS | 3.88 |
| LWKMKPRRNLEELDYLHKDTGETS | 3.88 |
| LWKMKPRRNLEEEDYLHKDTGETS | 4.84 |
| LWKMKPRRNLEEGDYLHKDTGETS | 4.61 |
| LWKMKPRRNLEEDDYLHKDTDETS | 4.25 |
| LWKMKPRRNLEEDDYLHKDTIETS | 3.31 |
| LWKMKPRRNLEEDDYLHKDTAETS | 4.65 |
| LWKMKPRRNLEEDDYLHKDTEETS | 4.65 |
| LWKMKPRRNLEEDDYLHKDTFETS | 3.92 |
| LWKMKPRRNLEEDDYLHKDTHETS | 4.42 |
| LWKMKPRRNLEEDDYLHKDTCETS | 4.21 |
| LWKMKPRRNLEEDDYLIKDTGETS | 4.11 |
| LWKMKPRRNLEEDDYLVKDTGETS | 4.71 |
| LWKMKPRRNLEEDDYLSKDTGETS | 4.54 |
| LWKMKPRRNLEEDDYLFKDTGETS | 4.16 |
| LWKMKPRRNLEEDDYLCKDTGETS | 4.32 |
| LWKMKPRRNLEEDDYLWKDTGETS | 3.84 |
| LWKMKPRRNLEEDDYLKKDTGETS | 4.38 |
| LWKMKPRRNLEEDDYLLKDTGETS | 4.09 |

| Variant | protein stability index |
| --- | --- |
| LWKMKPRRNLEEDDYLDKDTGETS | 4.94 |
| LWKMKPRRNLEEDDYLQKDTGETS | 4.68 |
| LWKMKPRRNLEEDDYLNKDTGETS | 4.28 |
| LWKMKPRRNLEEDDYLAKDTGETS | 4.93 |
| LWKMKPRRNLEEDDYLMKDTGETS | 4.29 |
| LWKMKPRRNLEEDDYLYKDTGETS | 4.38 |
| LWKMKPRRNLEEDDYLRKDTGETS | 4.41 |
| LWKMKPRRNLEEDDYLEKDTGETS | 4.35 |
| LWKMKPRRNLEEDDYLTKDTGETS | 4.82 |
| LWKMKPRRNLEEDDYLGKDTGETS | 4.5 |
| LWKMKPRRNLEEDDYLPKDTGETS | 4.8 |
| LWKMKPRRNLEEDDYNHKDTGETS | 4.97 |
| LWKMKPRRNLEEDDYPHKDTGETS | 4.2 |
| LWKMKPRRNLEEDDYAHKDTGETS | 4.74 |
| LWKMKPRRNLEEDDYEHKDTGETS | 4.79 |
| LWKMKPRRNLEEDDYIHKDTGETS | 4.23 |
| LWKMKPRRNLEEDDYMHKDTGETS | 4.24 |
| LWKMKPRRNLEEDDYRHKDTGETS | 4.1 |
| LWKMKPRRNLEEDDYHHKDTGETS | 4.36 |
| LWKMKPRRNLEEDDYCHKDTGETS | 4.63 |
| LWKMKPRRNLEEDDYVHKDTGETS | 4.52 |
| LWKMKPRRNLEEDDYFHKDTGETS | 4.26 |
| LWKMKPRRNLEEDDYTHKDTGETS | 4.74 |
| LWKMKPRRNLEEDDYSHKDTGETS | 4.6 |

| Variant | protein stability index |
| --- | --- |
| LWKMKPRRNLEEDDYKHKDTGETS | 4.59 |
| LWKMKPRRNLEEDDYGHKDTGETS | 5.08 |
| LWKMKPRRNLEEDDYYHKDTGETS | 4.14 |
| LWKMKPRRNLEEDDYWHKDTGETS | 4.19 |
| LWKMKPRRNLEEDDYQHKDTGETS | 4.87 |
| LWKMKPRRNLEEDDYDHKDTGETS | 4.92 |
| LWKMKPRRNLEEDDYLHKWTGETS | 2.87 |
| LWKMKPRRNLEEDDYLHKMTGETS | 3.81 |
| LWKMKPRRNLEEDDYLHKFTGETS | 3 |
| LWKMKPRRNLEEDDYLHKSTGETS | 3.48 |
| LWKMKPRRNLEEDDYLHKATGETS | 3.94 |
| LWKMKPRRNLEEDDYLHKNTGETS | 4.39 |
| LWKMKPRRNLEEDDYLHKRTGETS | 4.09 |
| LWKMKPRRNLEEDDYLHKTTGETS | 3.83 |
| LWKMKPRRNLEEDDYLHKGTGETS | 4.45 |
| LWKMKPRRNLEEDDYLHKLTGETS | 3.33 |
| LWKMKPRRNLEEDDYLHKCTGETS | 3.8 |
| LWKMKPRRNLEEDDYLHKVTGETS | 3.43 |
| LWKMKPRRNLEEDDYLHKPTGETS | 4.36 |
| LWKMKPRRNLEEDDYLHKQTGETS | 4.1 |
| LWKMKPRRNLEEDDYLHKITGETS | 3.46 |
| LWKMKPRRNLEEDDYLHKKTGETS | 4.23 |
| LWKMKPRRNLEEDDYLHKHTGETS | 3.83 |
| LWKMKPRRNLEEDDYLHKETGETS | 4.41 |

| Variant | protein stability index |
| --- | --- |
| LWKMKPRRNLEEDDYLHKYTGETS | 3.81 |
| LWKMKPRRNLENDDYLHKDTGETS | 4.15 |
| LWKMKPRRNLEQDDYLHKDTGETS | 4.23 |
| LWKMKPRRNLEMDDYLHKDTGETS | 3.63 |
| LWKMKPRRNLEYDDYLHKDTGETS | 3.3 |
| LWKMKPRRNLEFDDYLHKDTGETS | 3.51 |
| LWKMKPRRNLEHDDYLHKDTGETS | 3.75 |
| LWKMKPRRNLEPDDYLHKDTGETS | 4.26 |
| LWKMKPRRNLECDDYLHKDTGETS | 3.96 |
| LWKMKPRRNLEKDDYLHKDTGETS | 4.25 |
| LWKMKPRRNLEGDDYLHKDTGETS | 4.16 |
| LWKMKPRRNLEDDDYLHKDTGETS | 4.46 |
| LWKMKPRRNLEWDDYLHKDTGETS | 3.16 |
| LWKMKPRRNLEVDDYLHKDTGETS | 4.09 |
| LWKMKPRRNLELDDYLHKDTGETS | 3.74 |
| LWKMKPRRNLETDDYLHKDTGETS | 4.28 |
| LWKMKPRRNLEIDDYLHKDTGETS | 3.66 |
| LWKMKPRRNLEADDYLHKDTGETS | 4.06 |
| LWKMKPRRNLERDDYLHKDTGETS | 4.07 |
| LWKMKPRRNLESDDYLHKDTGETS | 4.45 |
| LWKMKPRRNLEEDDYLHTDTGETS | 4.6 |
| LWKMKPRRNLEEDDYLHNDTGETS | 4.51 |
| LWKMKPRRNLEEDDYLHSDTGETS | 4.53 |
| LWKMKPRRNLEEDDYLHDDTGETS | 4.7 |

| Variant | protein stability index |
| --- | --- |
| LWKMKPRRNLEEDDYLHFDTGETS | 3.38 |
| LWKMKPRRNLEEDDYLHVDTGETS | 4.21 |
| LWKMKPRRNLEEDDYLHLDTGETS | 3.93 |
| LWKMKPRRNLEEDDYLHPDTGETS | 4.47 |
| LWKMKPRRNLEEDDYLHMDTGETS | 4.29 |
| LWKMKPRRNLEEDDYLHADTGETS | 5.12 |
| LWKMKPRRNLEEDDYLHHDTGETS | 4.62 |
| LWKMKPRRNLEEDDYLHWDTGETS | 3.81 |
| LWKMKPRRNLEEDDYLHCDTGETS | 4.28 |
| LWKMKPRRNLEEDDYLHEDTGETS | 4.87 |
| LWKMKPRRNLEEDDYLHQDTGETS | 4.46 |
| LWKMKPRRNLEEDDYLHRDTGETS | 4.75 |
| LWKMKPRRNLEEDDYLHIDTGETS | 3.58 |
| LWKMKPRRNLEEDDYLHYDTGETS | 4.03 |
| LWKMKPRRNLEEDDYLHGDTGETS | 4.73 |
| LWKMKPRRNLYEDDYLHKDTGETS | 3.09 |
| LWKMKPRRNLMEDDYLHKDTGETS | 3.96 |
| LWKMKPRRNLPEDDYLHKDTGETS | 4.2 |
| LWKMKPRRNLREDDYLHKDTGETS | 4.04 |
| LWKMKPRRNLNEDDYLHKDTGETS | 3.83 |
| LWKMKPRRNLSEDDYLHKDTGETS | 4.06 |
| LWKMKPRRNLTEDDYLHKDTGETS | 4.15 |
| LWKMKPRRNLVEDDYLHKDTGETS | 4.28 |
| LWKMKPRRNLQEDDYLHKDTGETS | 4.12 |

| Variant | protein stability index |
| --- | --- |
| LWKMKPRRNLWEDDYLHKDTGETS | 3.22 |
| LWKMKPRRNLEEDDVLHKDTGETS | 5.07 |
| LWKMKPRRNLEEDDQLHKDTGETS | 4.92 |
| LWKMKPRRNLEEDDFLHKDTGETS | 4.14 |
| LWKMKPRRNLEEDDILHKDTGETS | 3.61 |
| LWKMKPRRNLEEDDWLHKDTGETS | 4.26 |
| LWKMKPRRNLEEDDNLHKDTGETS | 4.57 |
| LWKMKPRRNLEEDDALHKDTGETS | 5.02 |
| LWKMKPRRNLEEDDMLHKDTGETS | 4.68 |
| LWKMKPRRNLEEDDLLHKDTGETS | 4.33 |
| LWKMKPRRNLEEDDRLHKDTGETS | 4.53 |
| LWKMKPRRNLEEDDSLHKDTGETS | 5.16 |
| LWKMKPRRNLEEDDGLHKDTGETS | 4.83 |
| LWKMKPRRNLEEDDPLHKDTGETS | 4.81 |
| LWKMKPRRNLEEDDDLHKDTGETS | 5.15 |
| LWKMKPRRNLEEDDKLHKDTGETS | 4.84 |
| LWKMKPRRNLEEDDELHKDTGETS | 4.77 |
| LWKMKPRRNLEEDDTLHKDTGETS | 5.04 |
| LWKMKPRRNLEEDDCLHKDTGETS | 4.66 |
| LWKMKPRRNLEEDDHLHKDTGETS | 4.66 |
